Source: the RNAGym collection of RNA variant scans (doi:10.7554/elife.90254)

B1: OR4K15 (parent)
chain: GUUAACGGUCAUAGGCCAUGGAAACUAGGAGCACCAUUUCGCUGCCAGUGAAGAAAUGAACAAAGAAAAUCUGGGCCAGGCAGGCAUCAAAAGAAAUAGUCUUGCGCUCAACCAGAAAGUCUGUAAUCAUUUUAAGGGUA

Variants of: B1
Test: self-cleavage, relative activity (ratio to wild type); higher = more cleavage; in vitro, sequencing; the parent is a self-cleaving ribozyme

| Variant | self-cleavage |
| --- | --- |
| U26C A111G | 0.03 |
| U26C A135U | 0.57 |
| U26C A62G | 1.47 |
| A24U A117G | 1.85 |
| U26C G58U | 1.48 |
| A24G U87C | 1.18 |
| A24U A56G | 2.25 |
| U26C A60U | 1.43 |
| C25U A82G | 0.05 |
| U26A A63U | 2.02 |
| U26A A63C | 1.71 |
| A24G U38C | 1.46 |
| U26C U39C | 1.63 |
| A27C A36C | 2.11 |
| A24U A96G | 0.87 |
| A24U A116G | 0.78 |
| U26C A89U | 0.5 |
| U26G A89C | 1.29 |
| A24G U26C | 0.81 |
| U26C U122A | 1.87 |
| U26C U57C | 1.44 |
| U26C A64G | 0.74 |
| U26G A36G | 1.37 |
| C25U | 1.3 |

| Variant | self-cleavage |
| --- | --- |
| C25A | 0.92 |
| C25G | 1.1 |
| U26C A66G | 0.9 |
| A24U U100A | 0.31 |
| U26A A89G | 1.53 |
| A24G U100C | 1.97 |
| A24U U108A | 0.07 |
| A24U U108C | 0.02 |
| A24G U131A | 1.22 |
| A24G U102A | 0.51 |
| A24G U102C | 1.48 |
| U26A U37C | 0.43 |
| A24G U120C | 0.35 |
| U26A A78G | 0.17 |
| U26A A78U | 0.43 |
| U26C A94G | 0.95 |
| U26C A27C | 2.1 |
| U26C U43A | 1.29 |
| U26C U127C | 0.85 |
| C25A A135G | 1.61 |
| U26C A117G | 1.36 |
| U26C A117U | 0.5 |
| U26A A66C | 0.9 |
| U26C A95G | 1.75 |

| Variant | self-cleavage |
| --- | --- |
| U26G A114U | 0.06 |
| U26C A126G | 0.72 |
| A24G U70C | 0.53 |
| A24G G58A | 0.4 |
| U26C U131A | 1.02 |
| U26G U127A | 1.82 |
| U26C U38C | 1.45 |
| A24U A62G | 2.33 |
| C25U A60G | 1.88 |
| A24U A89G | 0.56 |
| U26A A117G | 1.78 |
| A24U A78G | 0.38 |
| A24U U103C | 0.25 |
| A24U A111G | 0.03 |
| U26A A56G | 1.7 |
| U26C A140U | 0.35 |
| A24G G79A | 0.18 |
| U26C | 1.26 |
| U26G | 1.33 |
| U26A | 1.07 |
| U26C A52U | 0.88 |
| U26C A52G | 1.82 |
| C25U U100C | 2.01 |
| U26A A62G | 1.75 |

| Variant | self-cleavage |
| --- | --- |
| U26C A47G | 1.24 |
| A24G U130G | 0.56 |
| A24G U130C | 1.38 |
| U26C A33G | 0.84 |
| A24G U39A | 1.45 |
| C25U A92G | 0.6 |
| A24G U108A | 0.04 |
| A24G U108C | 0.03 |
| U26A A118G | 0.34 |
| U26C A78U | 0.21 |
| U26C A78G | 0.21 |
| A24U | 1.41 |
| A24U G28C | 1.02 |
| U26C U124C | 1.05 |
| A24G U43A | 1.29 |
| A24G U43C | 1.37 |
| A24U U97G | 1.9 |
| A24G G123A | 1.48 |
| A24G G93A | 0.88 |
| U26C G44U | 1.99 |
| U26A A140G | 2.37 |
| C25U A118G | 0.68 |
| A24U A52G | 1.32 |
| A24G U72C | 0.27 |

| Variant | self-cleavage |
| --- | --- |
| A24G G41U | 1.18 |
| A24G G41A | 1.45 |
| A24G U57C | 1.51 |
| A24G U97A | 1.79 |
| C25A A95G | 0.89 |
| U26C C76U | 0.09 |
| U26A U122C | 0.72 |
| U26A U122A | 0.73 |
| A24U A95G | 1.95 |
| C25U A47U | 1.35 |
| A24U U131A | 0.43 |
| A24U C71A | 0.49 |
| U26C U132C | 0.52 |
| A24G G80C | 0.1 |
| C25U A94U | 1.62 |
| A24U A114U | 0.22 |
| A24U A114C | 0.04 |
| A24U A67U | 1.89 |
| A24U U120C | 0.8 |
| C25U A56G | 0.46 |
| U26C A116U | 0.18 |
| C25U A86G | 1.2 |
| C25U A86U | 0.61 |
| U26A A54C | 1.61 |

| Variant | self-cleavage |
| --- | --- |
| U26C U37C | 0.95 |
| C25U A51G | 2.48 |
| U26C U49C | 1.41 |
| C25U A33G | 1.12 |
| A27C | 1.21 |
| U26C A91G | 1.26 |
| U26C A69C | 1.74 |
| A24U A59G | 1.28 |
| A24G G104A | 0.04 |
| U26C A118G | 2.14 |
| U26C A30G | 1.25 |
| C25A U122A | 0.94 |
| A24U U37C | 1.82 |
| A24U U122C | 1.08 |
| U26C G93U | 0.86 |
| A24G U127A | 1.53 |
| U26C A114G | 0.04 |
| A24U C105U | 0.17 |
| A24U U133A | 1.54 |
| C25U A89C | 1.42 |
| U26C U70C | 0.38 |
| U26C U70A | 0.63 |
| C25A A33G | 0.9 |
| A24U U49C | 0.58 |

| Variant | self-cleavage |
| --- | --- |
| U26C A51G | 1.72 |
| U26C A96U | 1.89 |
| A24U A55U | 0.93 |
| A27C A78C | 0.25 |
| A24G U122C | 0.84 |
| A24G U122A | 1.19 |
| U26A A110G | 0.22 |
| U26C U87A | 1.6 |
| A24U C76U | 0.06 |
| A24U U127C | 1.36 |
| A24G G138A | 1.18 |
| C25U A30G | 1.24 |
| C25U U72C | 0.4 |
| A24G U37C | 1.12 |
| A24G G136C | 1.47 |
| A24U A126G | 1.15 |
| U26C U72A | 0.33 |
| U26C U72C | 0.07 |
| C25U U49C | 1.45 |
| U26A A59G | 1.18 |
| U26C A82G | 0.5 |
| U26A U139A | 1.05 |
| A24G G75A | 0.15 |
